Here are results for one molecule from patent US20240101654A1.

For the assay, the target named is recombinant full-length human Tau (Tau-441, (2N4R)) (human) (UniProt P10636). Kind of assay: indirect ELISA, plate coated with recombinant full-length human Tau at 3 µg/ml.

B1: NI-502.4P3 (antibody, V domains shown)
VH: EVQLVQSGAEVKKPGESLKISCKVSGYDFSKYWIGWVRQMPGKGLEWMGLIYPGDSDTRYSPSLEGQVSISADKSISAAYLQFSSLKASDSAMYYCVRKGYSAYLGGWFDPWGQGTLVTVSS
VL: DIQLTQSPDSLAASLGERVTINCRSSQNIFYNSNNKNFLAWYQQKAGQSPKLLIYWASTRESGVPDRFSGSGSGTDFTLTISGLQAGDVAVYFCQQYFTDAPTFGGGTKVEIK
For the molecule B1, the EC50 (as a rule, the concentration needed to bring the measured effect to its halfway point) was 15 nM.
